Experiment: label from the status in PepcDB records
For “SLSRTVHHQQTAEITQQAADFIRYMNAINDYLYQHPERRAAGGQLTSAQLGLPATKNVSHLISQQRVFVWAKEKPGLMGALLEQSGDSALLARVENGRLLDTHGRRISITLPAVIPDQVIIWMN”, the protein production was “not failed”.
For “SLSSTQSVNSVLAPGNLRKVHHIALNVQDMQASRYFYGTILGLHELTDDEVPATLTELVASGKVANFITPDGTILDLFGEPELSPPDPNPEKTFTRAYHLAFDIDPQLFDRAVTVIGENKIAIAHGPVTRPTGRGVYFYDPDGFMIEIRCDPEAEG”, the protein production was “not failed”.
In the case of “SLVDGKLVCVTGAGGYIASWIVKLLLERGYTVRGTVRNPTDPKNNHLRELQGAKERLTLHSADLLDYEALCATIDGCDGVFHTASPMTDDPETMLEPAVNGAKFVIDAAAKAKVKRVVFTSSIGAVYMNPNRDTQAIVDENCWSDLDFCKNTKNWYCYGKMLAEQSAWETAKAKGVDLVVLNPVLVLGPPLQSAINASLVHILKYLTGSAKTYANLTQVYVDVRDVALGHVLVYEAPSASGRYILAETALHRGEVVEILAKFFPEYPLPTKCSDEKNPRAKPYKFTTQKIKDLGLEFKPIKQSLYESVKSLQEKGHLPLPQDSNQNEVIIES”, the protein production is reported as “failed”.
In the case of “SLWQPQTGDIIFQISRSSQSKAIQLATHSDYSHTGMLVMRNKKPYVFEAVGPVKYTPLKQWIAHGEKGKYVVRRVEGGLSVEQQQKLAQTAKRYLGKPYDFSFSWSDDRQYCSEVVWKVYQNALGMRVGEQQKLKEFDLSNPLVQAKLKERYGKNIPLEETVVSPQAVFDAPQLTTVAKEWPLFSW”, the protein production is reported as “not failed”.
With “SNAMNVPFWTEEHVRATLPERDAESHKGTYGTALLLAGSDDMPGAALLAGLGAMRSGLGKLVIGTSENVIPLIVPVLPEATYWRDGWKKAADAQLEETYRAIAIGPGLPQTESVQQAVDHVLTADCPVILDAGALAKRTYPKREGPVILTPHPGEFFRMTGVPVNELQKKRAEYAKEWAAQLQTVIVLKGNQTVIAFPDGDCWLNPTGNGALAKGGTGDTLTGMILGMLCCHEDPKHAVLNAVYLHGACAELWTDEHSAHTLLAHELSDILPRVWKRFE” the protein production was “not failed”.
For “SNEELETAKEEMQSVNEELQTINSELHGKNELLLQANNDLQNLLDNTQIATIFLDDDLTVRNFTPAAREVFSLRDGDRGRPVTEITSLLSYDKLCEDVRTVQRTLGVVESQLDLEDESATYIMRIRPYRTVANVISGVVITFSNITEQKQQHDHLQVLMGELQHRTNNVFAVILAIARQTVRNS”, the protein production was “failed”.
With “SNGTPLMTPTELIERQASGEQLQIIDTRSKKQYEISCVKGAIHIPLAEIRDRVAELDKNVTTITYCNKGVTGNAAQNILLNEGFKEVYNLSGGNKNY” the protein production was “failed”.
In the case of “SNMQLDTLRRIVQEINSSVSLHDSLDIMVNQVADAMKVDVCSIYLLDERNQRYLLMASKGLNPESVGHVSLQLSEGLVGLVGQREEIVNLENASKHERFAYLPETGEEIYNSFLGVPVMYRRKVMGVLVVQNKQPQDFSEAAESFLVTLCAQLSGVIAHAHAVGNIDVFRKPSNGA”, the protein production is reported as “not failed”.
In the case of “SPEHGQAGRKIGEEGIVLLQNKDNVLPIDLKKARKIAVIGENAIKMMTVGGGSSSLKVKYEISPLDGLKNRVGSQAEVLYVRGYVGDPTGEYNGVQTGQDLKDDRSEDELLAEAVEVSKDADYVIFFGGLNKSNHQDCEDSDRASLGLPYAQDRVIGELAKVNKNLIVVNISGNAVAMPWVNEVPAIVQGWFLGSEAGTALASVLLGDANPSGKLPFTFPARLEDVGAHKLGEYPGNKEELAHSKNNGDTINEIYREDIFVGYRWADKEKIKPLFPFGHGLSYTTF”, the protein production is reported as “failed”.
For “SPEYGMPSVTFGSVHPSDVLDMPVDPNEPTYCLCHQVSYGEMIGCDNPDCSIEWFHFASCGADNQPRGKWXFPRCSQE”, the protein production was “not failed”.
In the case of “SPGSAAKGSELSERIESFVETLKRGGGPRSSEEMARETLGLLRQIITDHRWSNAGELMELIRREGRRMTAAQPSETTVGNMVRRVLKIIREEYGRLHGRTDESDQQESLHKLLTSGGLNEDFSFHYAQLQSNIIEAINELLVELEGTMENIAAQALEHIHSNEVIMTIGFSRTVEAFLKEAARKRKFHVIVAECAPFCQGHEMAVNLSKAGIETTVMTDAAIFAVMSRVNKVIIGTKTILANGALRAVTGTHTLALAAKHHSTPLIVCAPMFKLSPQFPNEEDSFHKFVAPEEVLPFTEGDILEKVSVHCPVFDYVPPELITLFISNIGGNAPSYIYRLMSELYHPDDHVL”, the protein production is reported as “failed”.
In the case of “SPLGQIQLTIRHSSQRNKLIVVVHACRNLIAFSEDGSDPYVRMYLLPDKRRSGRRKTHVSKKTLNPVFDQSFDFSVSLPEVQRRTLDVAVKNSGGFLSKDKGLLGKVLVALASEELAKGWTQWYDLTED”, the protein production is reported as “not failed”.

— a protein production outcome set (Wang et al. 2014)
